From the DeepSol protein solubility set come the findings set out here.

This data set in a line: soluble on expression in E. coli; label from the status in PepcDB or PDB records.
On to “MSLAIPTRNEVSDDLKWDLSRVFKDDQEWEQEYNRVAIEIKNLGRFKGNLAKSGQDLYEGITEILSVNRRLEKVYVYATMSSDVDTSNTHYLGLVAKAQSLANQMSAAISFVDPEILSIPEETLAKFMQDEPRLKEYQHRLEQITKKRPHTLPASEEKIIAAAGDAMGTSANTFNVLTNSDMEYGYVQDEDGEMVQLSDGLYSLLIQSQDRNVRKNAFDVMYASYGQFENSLASTLSGEVKAHNFNAQVHKYNSAREAALSENGVPTAVYDTLVKEVNSHLNLLHRYVSLRKKILGLSDLQMYDMYVPLTGEPSLSYNFEEAKNEARRALAPLGKDYLEHVDYIFNNRVIDVVESQNKVTGAYSGGSYDTDPYELLNWEDNLDSLYTLVHETGHSVHSWYTRNTQPYVYGDYPIFVAEIASTTNENILTEYFLDKITDPKTRAFVLNHYLDSFKGTLFRQTQFAEFEQFIHEADANGQPLTADVLDEFYGNLNQRYYGDSVEPGGEIAKEWARIPHFYYNFYVYQYATGFAAATALANNVVHGTDKERTAYINFLKAGSSDYPTEIMKRAGVDMTKADYLKDAFNTFEERLNEFEKIVDELKTEGHHHHHH”, for which the “soluble on expression in E. coli” value was “soluble”.
Take “MGSDKIHHHHHHMIAVLRINHRPFRDKRITTHVALTARAFGASSILVDEKDETLEQTINKVVENFGGNFFIKSGVDWKREFRNFKGIRVHLTMYGRPLEDVVKEIRESKKDVMILVGSEKVPFEAYEIADYNVSVTNQPISEVSALAIFLDRFYDGEELNWRFTGKINVYPSERGKKVKIIPDEQGCLDLLYKYGASDYLINHVKSVKELAVAIAKKTNADINLVTAGALLHDIGRTQVQGITHAVVGADILRREGIDDRVVSIVEKHIGAGIQSEEAVKLGLPPDNYVPETIEEMIVAHADNLFAGDKRLKLQQVVDNYRKKGLEDAAERIAKLHKFLSTVIGQDMDEI”: the “soluble on expression in E. coli” value was “not soluble”.
Consider “NIYLDKRITKQATQFLEAARAIDSREHLISGYRSVAYQEKLFNSYVTQEMTSNPNLTRGQAEKLVKTYSQPAGASEHQTGLAMDMSTVDSLNESDPRVVSQLKKIAPQYGFVLRFPDGKTAETGVGYEDWHYRYVGV”, for which the “soluble on expression in E. coli” value is listed as “not soluble”.
Regarding “MAHHHHHHMTESRWITEALVQFSASPIWLTPIDNFVDDNCCIFSNESEMQLEYTVAHNKFKKLIDSLLTCFLMELGVSMETAVEALQSSLAVSVQTSEGLSEQQAAKKLLKQIFNADNFSHFHTMMVKRNLELDILANAALSSDGVCGNGGAALSTEEVEKETRARARVQRAIDVNGDVSEDDALRRAIEVSLQDGTAQQQVQAYRKACIQEDANLQLTAVEHQANSEKAQLEAVLQTQSAQNLPEGEHFRQNHVEPINKQKESQLQPIRAHAMSGKGQKGCDEAEPQKANFNSPESPCPLPALQVPAAASAPVAAPVSVPALPSIGQRQAALPSIPSTITASVLKSAPSAPAHQAHGTAVSATPAPTPIPTKEELEKRAQYMREQREKLLARNRASRQEQLNTFLQNNSSSTTTSSSAALAATGAAQSVTVEIARRLRGDLIGEARKSSG”, the “soluble on expression in E. coli” value was “soluble”.
Consider “PDPVRLEIFKNLYQFIAEQMGIVLQNTAASVNIKERLDFSCAIFDSSGLLVANAPHIPVHLGSMSESVCSLINDKGETIKPGNVYLSNNPYNGGTHLPDVTAITPVFPETQENPPTPLFYVASRGHQADIGGITPGSMPPHSTTVEEEGILFDNFLLVEAGNFQEIQVRNLLANHLYPARNPDQNIADFQAQIAANERGVKELHKMVAQYGLPIVQVYMKFVQDNAGESVRRAIDVLKDGTFIYEMDGGAKIQVKVTINREKRSAEIDFTGTSEQLNSNFNAPKAVTQAAVLYVFRTLVDDNIPLNAGCLKPLDIIVPEGCMLNPTYPSAVVAGNVETSQTIVDALYGALSVMAASQGTMNNFTFGSDRYQYYETICGGSGAGSNFDGTDAVHTHMTNSLLTDPEVLETRYPVLVESFSLRSDSGGKGKYSGGNGVVRRIRFLEPMTANILSGHRLVPPFGLNGGEAGQVGHNRIERHDGTQENLDSTATAEMQPGDVFVIETPGGGGFG”, for which the “soluble on expression in E. coli” value is “not soluble”.
With “MSEITLGKYLFERLKQVNVNTVFGLPGDFNLSLLDKIYEVEGMRWAGNANELNAAYAADGYARIKGMSCIITTFGVGELSALNGIAGSYAEHVGVLHVVGVPSISAQAKQLLLHHTLGNGDFTVFHRMSANISETTAMITDIATAPAEIDRCIRTTYVTQRPVYLGLPANLVDLNVPAKLLQTPIDMSLKPNDAESEKEVIDTILVLDKDAKNPVILADACCSRHDVKAETKKLIDLTQFPAFVTPMGKGSIDEQHPRYGGVYVGTLSKPEVKEAVESADLILSVGALLSDFNTGSFSYSYKTKNIVEFHSDHMKIRNATFPGVQMKFVLQKLLTTIADAAKGYKPVAVPARTPANAAVPASTPLKQEWMWNQLGNFLQEGDVVIAETGTSAFGINQTTFPNNTYGISQVLWGSIGFTTGATLGAAFAAEEIDPKKRVILFIGDGSLQLTVQEISTMIRWGLKPYLFVLNNDGYTIQKLIHGPKAQYNEIQGWDHLSLLPTFGAKDYETHRVATTGEWDKLTQDKSFNDNSKIRMIEVMLPVFDAPQNLVEQAKLTAATNAKQ” the entry was “soluble”; with “ATFTSLANQAASREDYEFHRTVLLASGGLLLSGDPLPEITPFASKTLAKLMLRQRRSQESAKFTALSLSHAFLKLTDKNDLHCLFNYANHNATEFTLTADQPVDWYDYWTGEKLNQDPCQLLLVSVDRGLNAKAIVTA”, “not soluble”.
With “MGHHHHHHSHMSLKGKRIGFGFTGSHCTYEEVMPHLEKLIAEGAEVRPVVSYTVQSTNTRFGEGAEWIKKIEEITGFKAINSIVGAEPLGPKIPLDCMVIAPLTGNSMSKFANAMTDSPVLMAAKATLRNGKPVVLAVSTNDALGLNGVNLMRLMATKNIYFVPFGQDAPEKKPNSMVARMELLEDTVLEALQGKQLQPVVVEKFRYMN” the entry was “soluble”; with “GPGSMNPHSRMPEDGGNAQPNETHRLMVGAAGQRPNVSGQFGKSTSPSLVAFAFLHLPLEDGCGAEEEEQNFLAFDVTTWATRIRNEGISGAVVDLWGAYNYYWHQADDRVQLALDSLASWMHALEMDRDPADRFTDLGRILLQVFWLQMMVTTANPGITISTLCARLHMAVHEAETCARATKPLA”, “soluble”.
With “MFAIISVTGADHTGIIAAVATKCADLGVNINNVSQTIMDGYFTMILHVSFDDSATDIATIQESMADVEKDQNLVIRIQSQAIFDAMNII” the entry was “not soluble”; with “MGSDKIHHHHHHAQTWENVHFNVDWQMNVPLNSNFADKFSGWGMNFEGKYDLTPYWAIGAFLNFHTNHRYVDRRTIPLTPTASLTTDQQQSAFQLPFGISVSYKLPDNRYVKPYFGVKSGAMYSQNSIYNNLVQWYERPWGFYVSPELGMDIHPVPYQRLGFHVAVYYSYATNKTDILTYSEDGRNSMGVRVGVCF”, “not soluble”; with “MVKGRIHSVESCGTVDGPGIRYVIFTQGCLLRCQYCHNADTWEIGKGKEITVEEVMQDVTCYLPFIEASGGGITVSGGEPLLQLDFLIELFKKCKAAGIHTTIDSSGGCYSEEPEFRNKLDILMDYTDLVLLDLKHIDSKKHRKLTGKPNEHILQFARYLSDKNKPIWVRHVLVPGVTDNEEDLQKLSSFIQSLSNVQKVEVLPYHKLGVYKWEALGHKYPLANVEPPTEKNVEHAKYILQAV”, “not soluble”.
As to “MGAIKPLEDWLKNLGVKSDIRPNLLAGMEINDQICSVPLQTSNIGILERSKLFQAAGITEPPKTWEELRAVVKKSTIDKNGDHRPEQYGMLLTFGKGGWTVFSWLPFLFAAQGEIITDHYPSLSNPGAITALQFW”, the “soluble on expression in E. coli” value is given as “not soluble”.
As for “MNTKKEIKFIEEIKGLVPKKLGKIYTSSIIEKDSKRLTINLKKVDALPKCGLIGAPDVCVKITLTQGAKTQTKSSRVIKNTCSAVYNEAVMFLCGTSKNDLAQTSIVISVHDAQRTCTGDDTIGCAYLGIGAVDKSEIDQWKGTTEHLGKEYKGNHTLKAPITAPPVHVAEANDDVAADDDD”, the “soluble on expression in E. coli” value was “soluble”.
“MSLSIFKRKTKQVNPFEQGWLTDLIDIHCHLLPAVDDGSKSIEETLSLIDLLEEIGVKQHILTPHIMEEYPSNDAIFLRARFEELLAAITPDKASRLRLAAEYMLDVAFLDRLAEPLLTLGDRYILVETSYMAPPIGLMGLLADLRFKGLSPVLAHPERYLYMEEKDYVAIKKQGVMFQLNLFSLFGAYNSSASEKAYALLEAGYYDLIGTDIHHLQPIARLLSEASLPPDLEGKIKSLVENNTRLFSEGHHHHHH”: the “soluble on expression in E. coli” value is “soluble”.
